Data as given in a protein production outcome set (Wang et al. 2014).

Assay: label from the status in PepcDB records
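Further: failed if final PepcDB status was selected cloned or expressed and not failed if soluble or beyond.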

Protein production, not failed:
MAVKFFGQFLVEKGVVSRETLLQAIELQESVNLSFGATSLAMGILTEADIERIHNAQRIEDLRFGDMAVKLGLLTSEQMMQVLTRQKNTHLYIGEALVKVGSFQADELPKYLEEFKADQAQYATDTVVIPTGVSEPKIWEMVADLSYKMLTRVALLVFRPEPCFVADRVPAMDVYATMDFTGDISGRYFMGVTAATQKKIAKAILKEPNVDNEPKEILDDTVMEFVNVALGNIAAKAAQSGKSMEIAPPEIIEAPDGIQVPDGHKALCFPVCLSDGDRIELAVFIQQLEHHHHHH
MAVSSNGGAIKAVIYDCDGVMFDSFEANLAFYQRIMEMMGRPRLSRDNEEQMRILHTYANREVLAHFFPSPGDWEEAVRCAGAIDYRELVPLMIMEEGFREALDTLKGRVGLGVCTNRSTSMDMVLRLFSLDSYFSIVMTASRVTNPKPHPEPLLKVLEHFGIGPREALFVGDSEVDRLSAEAAGVPFVAYKAPLPAAYRMEHHREIIDLLG

Protein production, failed:
MATVAECNHSVLDLVTKMATMLVADEMKPKKQTAVLVAKKRSKIYESLLHSETMSSQDKLEMLHQVTSEVAKNPDRMDMLLRFQNLLEGQDKEESEITQDQDEENQSEVVIKRIKAGPLQLIETIEIVEEALHPKAFPDINQMNRALKPLQLQPYSDILTTSNLNINFPPEKLIPKIIPSTVIRMGLSESITRMRNEMEKPMHPPPRLPVLAKKVVAPLEDERPFVAQPGPEKHFVSDKLLTNELKILRNKNLVLNYLDEATLIDHLKKAACGIESLTFPISSADKLELRVRPNTTLPTMLPEVLADFANHFIRAGCAFLRLSSRTKWNNIAEMRLERPLNRAMRETIMDYLSTTRQFLLSLQADSLFQLLNNTSTAIQLLCQLDRMFENEPRLNLNTGITGSFLLSSIWLAIDTCGNKDFLHLLIYFLRCISRNYFIQLQRWIYHGELDESVNEIFISRCLNTSPSFTNQCSKEFFDKSYQVDNEAIPEFLVGCEEEILQCGKYNLVLRAYNAQHPVFDVQYPDIVVCLTEQQLKNMRRNLADKYAIIYKRFGWCSMQSIFEDRMATKRVFANLMVKRTQAHLDAWAQKQRELQIKANAQKKLQNDQLNAEQERIQQNHLEKRRQDIVNELAFQRECERMEDKLLEREKQELQKKVVQLAAVLSSSPDRSTVSDLSFASCIEEPDCLAESSSDKDDANTENSEDEATKQLDKTLNVPLEQPEAEYQADVDVDQPRGKECSLPNVFQYQRSHSDVINSNEHPTTQAEFNRNRQHGLSSDQFQQCHATVHLQESDLLKTAASTSSGLHAEIPQDINANLNCPDTKELTELQRNRKRNEHHDGFFSFNSTEDEHTHRLRSLLNSNTERGRNRLRVMETEFGLGYKNTDIETKATPCLPLEIDKLHVEIPLAVLTPMSTTSDVDFGDPSPRELPEIADTANNNNVSGSIESLSPELPKPVLAIAKPTSLLPKLDFGMKDERETEQDRDKVSTLPEACNPFMARRCLQLSVMAPLNAYYGLLRNEVLRIFQEQRIYEHFRKLRNYFFLVDGQFGATLTNEILGRIRAGVGPRSLSQKGILDTILTNALAACSADETTVSENLTLNCTTIPDTLNFLSVEATSMLKLNCKIDWPLNMVISSETISKYGQIFGYLLKLRHVSFVLDGTYEYLQQMGKLLGPELRTCTHFRHMQMMRHKMSHFMTSFQTHLVAKALLSTWKSFKEELCTADSIEALYKQHVAYLKRVAFLALLNRRSAKVKETIDNILVIILRFCKVIQSQSFIVDQDNYFVHPRFKRLQQEEAEFEKFLQYLIYLGNKAAASGYQEEIGDLICIINFNHYYKVSGNHTGSSMEDKKC
MATVRLVTRKRAGRSSRPSAASLPARSAVERNSSGPLLSKSRYVRIMAARRSSSLRQQQGRLEWGGRSRPVELATRSFEKQGDATAFFKAMLNRHQPGERVSDEDGLDVAALLERHTEYVAKVGCGVSHFQVMMTEHGTQCFRIIRTDGSGTDFSYPHCISQRPPSRKQEVAQAFRRAVRFDLYKARDNLFATHSGSDGLVSCAVTGERIAQDEGHMDHRPPMTFEVIVTTFLCGRGLSLDNVPLTTGKDDQVSPEVTDNALSEAFRAYHAGIARLDFVRNTVNLAQASRHRLKDGRITLTG
MAVAALLPQRPTSLEISMEGETFLWLIRHAPVDGVAGTIHAPDAPADLGDRAQLQALRQRLPRDSASYASPSRRTVETARALGLEPDLVGNFSEQDFGDWTGRRHDELAASGGEAYAQFWGDPAHARPPGGESFEDQVARVRHGLSRIGAGPATLVVHSGTIRAALCIALDLAPQSALRFVIDPLSLTRIDRLATGWRVVSVNQRVV
MAVAQADPGSDPAGGARFFCTAGRGLEPFLMREVRARLEATQVEYISGKVFFTTCSDLPSMKKLKSAERLFVLIKKQLPIAVSSLHKGKILNEMQRFVNDDPGSWLEAISLWKKLLEHDPKREKVSQRDANPLKRKAGENETIIAKKLKVEEKQEVAKDHGESQEDKLLQGSPEQGEAVTRTELQDHRLNSTTEKAADAQDQEDLTFRVSCRCTGNVRKVITGQEAGRVIGLALMRQFGWKADLRNPNIEIFMHLSDAYSVVGIPLLRMPLASRTYIQTAGLRSTIAWAMASIAEIKAGALVLDPMCGLGTILVEAAEEWPDVFYMGADMSDAQLLGACDNLKAAGLTDRIELLKSSVTDLPLPSQSTDVIISDIPFGKKFKLGKDIKSILQEMERVLRVGGAMVLLLSEDHHRHLTDCGGSSIPLTSKGHIAEPEMKTLSNPDRTGAPDTASPSQRASSVQCLGRMRPCGSLVPVESFKVSLGKTDAFICKYKKAQASGLSSAECHEPGAHTEMAAMQESPSLQDSL
MAVISPATRFAPPLNRPFHRRSILASFHSSSRNFLFLGKPTPSSTIVSVRCQKPVSDGVSSMESMNHVASSVSSSIDFLTLCHRLKGINGPESIADHMYRMALMALIAGDLTGVDRERCIKMAIVHDIAEAIVGDITPSDGVPKEEKSRRETAALKEMCEVLGGGLRAEEITELWLEYENNASLEANIVKDFDKVEMILQALEYEAEHGKVLDEFFISTAGKFQTEIGKSWAAEINARRKSQLTNRQR
MAVMDPWLIWLIVSAVLVLAEIFTLTAALGMLGVAALITAGSAAAGLSTPFQFLVFTVVSAVTLFFLRPVALRHLVQPQTQRFGVDALVGQAAYVVSDVTGREGRVRIGGEEWTARSYDETLVIPRGATVDVLEISGTTAFVYPRE
MAVNACLSPPEMMAVRPGEGVPNSKSTQGKTRLYLTKPSWIVRTQSGAKTCMKSKAKGRCVICHGSGRVDCFNCCGKGRTNCVDVEMLPRGEWPKWCKSCGGSGLSDCSRCLGTGERASFFFLWFDILIVMSSVALPAMSCRSSGEQVKEIRVCTNRTCRRQGSFQILETLTALAPPELRVTHCACLGRCGSGPNLVALPQGLILRHCATPSRAAEILFSLCGDGREASSSSAVTDALTALALTNNALSQIDAGNFSEAEALLTQALELKPYGGLHRIFKHRSVAKLGMLDYSGALEDISQALALAPNYSEPYICQGDVYVAKGQYDLAEKSYLTCLEIDPSLRRSKPFKARIAKLQQKVVELDVT
MAVPRWAVRDLTQISSARELSLRLEQARNDFRATVGSICYFNASARTPGQFDDEYIMTDQSLTYVYADGVTAQSCAMNRLLPSSSSNFGAAATAIPPWLLDPPRLNRLLREGTDEGGLVNYYEGPHKNAFFLAIMRSCIFVRPGADEINGVSYDFFARSGNYTEQLEHHHHHH
MAVRKLGVLTSGGDCPGLNAVIRAIARHAVGNYGWELWGIAYATQGLLKRQAIALSPHHFDRQSLDPLLCSGGTILGSINRGDTLAHQAEILAGYQELGLDALIGIGGDGSLAILRQLAEAGRWQFIGIPKTIDNDVALTERAIGFDTAIHTVAEALLSLGSTAASHDRIMIAEVMGRQSGHLALQGGIAGGADVILLPEIPYRLLELCHYLQQLRDRWQRRYAVIAIAEGTHHPPEVTQGPGSLGEQLVQAITAQDPTLDARVTVLGHVQRGGNPVASDRLLATQMGYAAVERLAAGASGEMMAWQGGRVVSVPLEAVCLQSPTLVDPHSPLVDTAAGLGIFLGDRSLTPWRGSACPTH
MAVSSLGNIYCAAAGFHSVPIVICQTSCVRWRGSGRTSGAICCAECVARGSDVRAYFRGQDKDAVGKDAVAPGVGCVQPVAIGIHAGLYRWRDRLRIGIDGDHARCRPDVAHGELDVGASAVPRRGSHGHRGRARAGGLVQELSVREQPPVDHRHLRAVLRLAGAAALLTQGRNAQGAVRELVCARYRHAVSGPRQPQGRGTGATSGGCVVAPGQTVVSVSRRHPQPHRRIIAIQGRATAGCYRCWRAGGSGGAGRLRQGVAGRWPVQGAPRHHPRADRYADRCDRAGCAGSPTIDRAGTQGRGCNASPQDLSSTLMDFVVPHDHPCLPGHFPGRPVVPGVVVLDHVLQAVEALHGPRAAARLPQVKFVQPLLPGQTASVTLEGDGPRWRFRVQRADVVLVSGELVAEAGT
MAVTSPNMPASIRWGGIVALIQSTIGFGYAFFLIYREATGETDPSIVYETDNANTWVGYGTAAFFIIVFGTVVAGAINMMKGHRWGRGAVVMLNIILLPAAYYMFIEGRFSWAIVTGISALFVLGALFNKRAVLWANNEI
MAVVGFDAAKISILDENEKVTDTFTIDRSSGGTIEANISGLAPNMNVVYASNVPFYVSAKGTSEVKCELTVADLDDLGTEAVNKILGREQDSTTKITKVGVNTTPPYCVLELISKDKQGKGLFLGLLKGKFTFDGEDMKTSDNNGSQLSEDKVTMQCISRKDGYIYAKAKEADGTTQADFEKFIMPAATAPAAG
MAVYHLLLSSPPSLLLLPPSPRRPNLTLIRRIPAHPRLGNSTSLLSSSSPVIRKILVRSTLREDQPIASDSESSPTLLIGEDSAAFELGKQKLVSWVYFGVVLGVVLFILNVVWIDNSTGFGKSFIDAVSNISGSPEVAMLMLILIFAIVHSGLASLRDIGEKLIGERAFRVLFAGISLPLAMSTIVYFINHRYDGSQLWQLQGVPGVHEAIWVANFVSFFFLYPSTFNLLEVAAVDKPKMHLWETGIMRITRHPQMVGQIVWCLAHTLWIGNTVAASASLGLIAHHLFGAWNGDRRLAKRYGEDFESIKKRTSVIPFAAIFEGRQVLPEDYYKEFVRLPYLAITALTVGAYFAHPLMQGASFRLHW
MAVYLDKEKPVSERVEDLLSKMTLAEKCGQLNQRMYGWEAFSRDGETFHITEKFKEEVTRFEGIGALYGLFRADPWSKMNKDTGVSRKNAGKVANKIQRYVIENTRLGIPVLLAEEVPHGHQALDSESYPVNLARAASFNPELQKQVASAITEEISEKGVHLALASALDILRDPRWGRAEECYGEDPYLAAELTAAITEGFQASGKIAVILKHFAAQGEPIGGHNSGPVSIGVRELREIFLEPMRAGIRSGALGVMAAYNEIDGVPCHANKELLTTILREEMGFSGIVMADGCALDRLLKLNPDPKKAAKMALEAGVDLSLWDEVFPFLEESVEKGILDEKVVDDAVRRVLQVKFQLGLFEQPFVEEEI
